# Test results published in article PMC9179922.
# Target: Strep-tagged recombinant plasminogen activator inhibitor 1 (PAI-1) (human) (UniProt P05121)
# Assay: pull-down; affinity chromatography: purified Strep-tagged PAI-1 (75 µL, 100 µg/mL) immobilised on Strep-Tactin Sepharose gravity flow columns; 2.0 mL medium with untagged vitronectin loaded and incubated 1 h; six washes with Buffer W, elution with Buffer E; Western blot with densitometry
# UniProt P05121, sequence (P05121 24-402): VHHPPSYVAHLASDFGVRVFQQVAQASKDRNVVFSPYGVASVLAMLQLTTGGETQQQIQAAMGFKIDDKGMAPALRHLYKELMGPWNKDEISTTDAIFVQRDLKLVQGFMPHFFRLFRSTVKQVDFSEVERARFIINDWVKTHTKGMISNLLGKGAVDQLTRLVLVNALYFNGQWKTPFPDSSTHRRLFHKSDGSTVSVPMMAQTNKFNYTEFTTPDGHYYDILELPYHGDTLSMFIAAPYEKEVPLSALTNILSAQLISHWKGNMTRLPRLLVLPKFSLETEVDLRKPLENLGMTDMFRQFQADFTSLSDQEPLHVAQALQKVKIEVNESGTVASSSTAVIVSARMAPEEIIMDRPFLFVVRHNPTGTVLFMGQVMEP
substance,measurement,value
"untagged vitronectin isoform VTN_rs704: T (AMD risk-associated, Met400) (natural protein)",fold of vitronectin in the elution fraction against VTN rs704: C,2.28 fold
